Patent US20220204592A1
Where two headings read alike, the source gives them in different places.

Experiments:
[1] = biological target: H3 hemagglutinin (A/Wisconsin/67/2005) (influenza A virus A/Wisconsin/67/2005 (H3N2)); assay: ELISA on coated HA, relative Kd (4-parameter fit)
[2] = biological target: H5 hemagglutinin (A/Vietnam/1203/2004) (influenza A virus A/Vietnam/1203/2004 (H5N1)); assay: ELISA on coated HA, relative Kd (4-parameter fit)
[3] = biological target: H1 hemagglutinin (A/Solomon Islands/3/2006) (influenza A virus A/Solomon Islands/3/2006); assay: ELISA on coated HA, relative Kd (4-parameter fit)
[4] = biological target: H7 hemagglutinin (A/Netherlands/219/2003) (influenza A virus A/Netherlands/219/2003 (H7N7)); assay: ELISA on coated HA, relative Kd (4-parameter fit)
[5] = biological target: H3 hemagglutinin (A/Wyoming/03/2003) (influenza A virus A/Wyoming/03/2003 (H3N2)); assay: ELISA on coated HA, relative Kd (4-parameter fit)
[6] = biological target: H3 hemagglutinin (A/New York/55/2004) (influenza A virus A/New York/55/2004 (H3N2)); assay: ELISA on coated HA, relative Kd (4-parameter fit)
[7] = biological target: H3 hemagglutinin (A/Brisbane/10/2007) (influenza A virus A/Brisbane/10/2007 (H3N2)); assay: ELISA on coated HA, relative Kd (4-parameter fit)
[8] = biological target: H9 hemagglutinin (A/Hong Kong/1073/99) (influenza A virus A/Hong Kong/1073/99 (H9)); assay: ELISA on coated HA, relative Kd (4-parameter fit)
[9] = biological target: H1 hemagglutinin (A/Puerto Rico/8/34) (influenza A virus A/Puerto Rico/8/34 (H1N1)) (UniProt P03452); assay: cell-based or functional assay
[10] = biological target: H3 hemagglutinin of H3N2 strain X-31 (influenza A virus X-31 (H3N2)) (UniProt P03437); assay: cell-based or functional assay
[11] = biological target: HA from influenza B (B/Wisconsin/1/2010) (influenza B virus B/Wisconsin/1/2010); assay: ELISA on coated HA
[12] = biological target: H3 hemagglutinin (A/Uruguay/716/2007) (influenza A virus A/Uruguay/716/2007 (H3)); assay: ELISA on coated HA
[13] = biological target: H3 hemagglutinin (A/Moscow/10/1999) (influenza A virus A/Moscow/10/1999 (H3)); assay: ELISA on coated HA
[14] = biological target: H3 hemagglutinin (A/Wisconsin/67/2005) (influenza A virus A/Wisconsin/67/2005 (H3N2)); assay: ELISA on coated HA
[15] = biological target: H5 hemagglutinin (A/Vietnam/1203/2004) (influenza A virus A/Vietnam/1203/2004 (H5N1)); assay: ELISA on coated HA
[16] = biological target: H7 hemagglutinin (A/Netherlands/219/2003) (influenza A virus A/Netherlands/219/2003 (H7N7)); assay: ELISA on coated HA
[17] = biological target: H16 hemagglutinin (A/black headed gull/Mongolia/1756/2006) (influenza A virus A/black headed gull/Mongolia/1756/2006 (H16)); assay: ELISA on coated HA
[18] = biological target: H3 hemagglutinin (A/Wyoming/03/2003) (influenza A virus A/Wyoming/03/2003 (H3N2)); assay: ELISA on coated HA
[19] = biological target: H3 hemagglutinin (A/Perth/16/2006) (influenza A virus A/Perth/16/2006 (H3)); assay: ELISA on coated HA
[20] = biological target: H3 hemagglutinin (A/New York/55/2004) (influenza A virus A/New York/55/2004 (H3N2)); assay: ELISA on coated HA
[21] = biological target: H3 hemagglutinin (A/Brisbane/10/2007) (influenza A virus A/Brisbane/10/2007 (H3N2)); assay: ELISA on coated HA
[22] = biological target: H9 hemagglutinin (A/Guinea fowl/HK/WF10/99) (influenza A virus A/Guinea fowl/HK/WF10/99 (H9)); assay: ELISA on coated HA
[23] = biological target: H2 hemagglutinin (A/chicken/PA/2004) (influenza A virus A/chicken/PA/2004 (H2)); assay: ELISA on coated HA
[24] = biological target: H9 hemagglutinin (A/Hong Kong/1073/99) (influenza A virus A/Hong Kong/1073/99 (H9)); assay: ELISA on coated HA
[25] = biological target: H3 hemagglutinin (A/Wyoming/03/2003) (influenza A virus A/Wyoming/03/2003 (H3N2)); assay: cell-based or functional assay
[26] = biological target: H3 hemagglutinin (A/Brisbane/10/2007) (influenza A virus A/Brisbane/10/2007 (H3N2)); assay: cell-based or functional assay
[27] = biological target: H5 hemagglutinin (A/Vietnam/1203/2004) (influenza A virus A/Vietnam/1203/2004 (H5N1))
[28] = biological target: H7 hemagglutinin (A/Netherlands/219/2003) (influenza A virus A/Netherlands/219/2003 (H7N7))
[29] = biological target: H3 hemagglutinin (A/Brisbane/10/2007) (influenza A virus A/Brisbane/10/2007 (H3N2))
[30] = biological target: H5 hemagglutinin (A/Vietnam/1203/2004) (influenza A virus A/Vietnam/1203/2004 (H5N1)); remark: listed apart in the source

B1: Ab 037 (antibody, V domains shown)
VH: EVQLLESGGGLVKPGQSLKLSCAASGFTFTSYAMHWVRQPPGKGLEWVAVVSYDGNYKYYADSVQGRFTISRDNSKNTLYLQMNSLRAEDTAVYYCAKDSRLRSLLYFEWLSQGYFNPWGQGTTLTVSS
VL: DIQMTQSPSSLSASVGDRVTITCRSSQSITFNYKNYLGWYQQKPGKAPKLLIYWGSYLESGVPSRFSGSGSGTDFTLTISSLQPEDFATYYCQQHYRTPPSFGQGTKVEIK
Kd [1]: 0.313 nM | Kd [2]: 0.059 nM | Kd [3]: 0.075 nM | Kd [4]: 0.114 nM | Kd [5]: 0.512 nM | Kd [6]: 0.14 nM | Kd [7]: 0.087 nM | Kd [8]: 0.075 nM | MIC [9]: 4 µg/mL | MIC [10]: 8 µg/mL

B2: Ab 031 (antibody, V domains shown)
VH: EVQLLESGGGLVKPGQSLKLSCAASGFTFTSYAMHWVRQPPGKGLEWVAVVSYDGNYKYYADSVQGRFTISRDNSKNTLYLQMNSLRAEDTAVYYCAKDSRLRSLLYFEWLSQGYFNPWGQGTTLTVSS
VL: DIQMTQSPSSLSASVGDRVTITCRSSQSITFNYKNYLAWYQQKPGKAPKLLIYWGSYLESGVPSRFSGSGSGTDFTLTISSLQPEDFATYYCQQHYRTPPSFGQGTKVEIK
Kd [1]: 0.253 nM | Kd [2]: < 0.025 nM | Kd [3]: < 0.025 nM | Kd [4]: 0.091 nM | Kd [5]: 0.331 nM | Kd [6]: 0.059 nM | Kd [7]: 0.068 nM | Kd [8]: < 0.025 nM | MIC [9]: 1 µg/mL | MIC [10]: 20 µg/mL

B3: Ab 038 (antibody, V domains shown)
VH: QVQLLETGGGLVKPGQSLKLSCAASGFTFTSYAMHWVRQPPGKGLEWVAVVSYDGNYKYYADSVQGRFTISRDNSKNTLYLQMNSLRAEDTAVYYCAKDSRLRSLLYFEWLSQGYFNPWGQGTTLTVSS
VL: DIQMTQSPSSLSASVGDRVTITCRSSQSITFNYKNYLGWYQQKPGKAPKLLIYWGSYLESGVPSRFSGSGSGTDFTLTISSLQPEDFATYYCQQHYRTPPSFGQGTKVEIK
Kd [1]: 0.199 nM | Kd [2]: 0.087 nM | Kd [3]: 0.064 nM | Kd [4]: 0.119 nM | Kd [5]: 0.515 nM | Kd [6]: 0.102 nM | Kd [7]: < 0.025 nM | Kd [8]: < 0.025 nM | MIC [9]: 2 µg/mL | MIC [10]: 4 µg/mL

B4: Ab 044 (antibody, V domains shown)
VH: QVQLLETGGGLVKPGQSLKLSCAASGFTFTSYAMHWVRQPPGKGLEWVAVVSYDGNYKYYADSVQGRFTISRDNSKNTLYLQMNSLRAEDTAVYYCAKDSRLRSLLYFEWLSQGYFNPWGQGTTLTVSS
VL: DIQMTQSPSSLSASVGDRVTITCRSSQSITFDYKNYLAWYQQKPGKAPKLLIYWGSYLESGVPSRFSGSGSGTDFTLTISSLQPEDFATYYCQQHYRTPPSFGQGTKVEIK
Kd [11]: < 0.5 nM | Kd [12]: < 0.5 nM | Kd [13]: < 0.5 nM | Kd [14]: < 0.5 nM | Kd [15]: < 0.5 nM | Kd [16]: < 0.5 nM | Kd [17]: < 0.5 nM | Kd [18]: < 0.5 nM | Kd [19]: < 0.5 nM | Kd [20]: < 0.5 nM | Kd [21]: < 0.5 nM | Kd [22]: < 0.5 nM | Kd [23]: < 0.5 nM | Kd [24]: < 0.5 nM | EC50, Neutral Red (CPE inhibition) [25]: 6.8 µg/mL | EC50, Neutral Red (CPE inhibition) [26]: 0.3 µg/mL

B5: Ab 032 (antibody, V domains shown)
VH: QVQLLETGGGLVKPGQSLKLSCAASGFTFTSYAMHWVRQPPGKGLEWVAVVSYDGNYKYYADSVQGRFTISRDNSKNTLYLQMNSLRAEDTAVYYCAKDSRLRSLLYFEWLSQGYFNPWGQGTTLTVSS
VL: DIQMTQSPSSLSASVGDRVTITCRSSQSITFNYKNYLAWYQQKPGKAPKLLIYWGSYLESGVPSRFSGSGSGTDFTLTISSLQPEDFATYYCQQHYRTPPSFGQGTKVEIK
Kd [1]: 0.208 nM | Kd [2]: < 0.025 nM | Kd [4]: 0.106 nM | Kd [5]: 0.262 nM | Kd [6]: 0.094 nM | Kd [7]: < 0.025 nM | Kd [8]: 0.079 nM | kon [27]: 988000 M⁻¹ s⁻¹ | Kd [28]: 0.145 nM | koff [28]: 0.000161 s⁻¹ | kon [28]: 1.13e+06 M⁻¹ s⁻¹ | Kd [29]: 0.234 nM | koff [29]: 0.000376 s⁻¹ | kon [29]: 1.61e+06 M⁻¹ s⁻¹ | koff [30]: < 5e-06 s⁻¹

B6: Ab 004 (antibody, V domains shown)
VH: QVQLLETGGGLVKPGQSLKLSCAASGFTFTSYAMHWVRQPPGKGLEWVAVVSYDGNYKYYADSVQGRFTISRDNSKNTLYLQMNSLRAEDTAVYYCAKDSRLRSLLYFEWLSQGYFNPWGQGTTLTVSS
VL: DIVMTQSPDTLAVTLGERATIQCKSSQTVTFNYKNYLAWYQQKPGQPPKLLIYWASTRESGVPDRFSGSGSGTDFTLTITSLQAEDVAVYYCQQHYRTPPSFGQGTKLDIK
Kd [1]: 0.713 nM | Kd [2]: 0.06 nM | Kd [3]: < 0.08 nM | Kd [4]: 0.073 nM | Kd [5]: 0.272 nM | Kd [6]: 0.066 nM | Kd [7]: < 0.08 nM | Kd [8]: 0.06 nM | MIC [9]: 12 µg/mL | MIC [10]: 6 µg/mL

B7: Ab 005 (antibody, V domains shown)
VH: QVQLLETGGGLVKPGQSLKLSCAASGFTFTSYAMHWVRQPPGKGLEWVAVVSYDGNYKYYADSVQGRFTISRDNSKNTLYLQMNSLRAEDTAVYYCAKDSRLRSLLYFEWLSQGYFNPWGQGTTLTVSS
VL: DIVMTQSPDTVAVTVGERATINCKSSQTVTFNYKNYLAWYQQKPGQPPKLLIYWASTRESGVPDRFSGSGSGTDFTLTISSLQAEDVAVYYCQQHYRTPPSFGQGTKLDIK
Kd [1]: 1.09 nM | Kd [2]: 0.038 nM | Kd [3]: < 0.08 nM | Kd [4]: 0.064 nM | Kd [5]: 0.311 nM | Kd [6]: 0.065 nM | Kd [7]: 0.052 nM | Kd [8]: 0.035 nM | MIC [9]: 10 µg/mL | MIC [10]: 10 µg/mL
